Assays:
Assay in all cases: BLI; Forte Bio Octet; biotinylated Mm IgG or Fc captured on streptavidin SAX 2.0 tips, FcγRIII in solution in 3-fold serial dilutions (10 mM to 0.013 mM [sic]), PBST (0.05% Tween-PBS), 300 s association and 300 s dissociation; KD from equilibrium fits, average of two independent experiments; the footnote of Table 1 says SPR
[1] = molecular target: Fc of Mm IgG2 (Macaca mulatta (rhesus macaque))
[2] = molecular target: macaque immunoglobulin IgG1 Fc (residues 237-447) (Macaca mulatta (rhesus macaque))
[3] = molecular target: Mm IgG1 (Macaca mulatta (rhesus macaque))
[4] = molecular target: Mm IgG2 (Macaca mulatta (rhesus macaque))
[5] = molecular target: Mm IgG3 (Macaca mulatta (rhesus macaque))
[6] = molecular target: Fc of Mm IgG3 (Macaca mulatta (rhesus macaque))
[7] = molecular target: Mm IgG4 (Macaca mulatta (rhesus macaque))
[8] = molecular target: Fc of Mm IgG4 (Macaca mulatta (rhesus macaque))

Row | Substance | Kd [1] | Kd [2] | Kd [3] | Kd [4] | Kd [5] | Kd [6] | Kd [7] | Kd [8]
1 | Mm FcγRIII(Ile^158), partial glycosylation (Asn^38 and Asn^169 glycans removed), complex glycans (receptor) | 1600 nM | 120 nM | 340 nM | 2300 nM | 2800 nM | 230 nM | 2300 nM | 2200 nM
2 | Mm FcγRIII(Ile^158), partial glycosylation (Asn^38 and Asn^169 glycans removed), Man5 glycans (receptor) | 1500 nM | 60 nM | 280 nM | 2800 nM | 3000 nM | 160 nM | 1700 nM | 1900 nM
3 | Mm FcγRIII(Ile^158), fully glycosylated, Man5 glycans (from UniProt A3RFZ7 21-206) (receptor) | 150 nM | 210 nM | 220 nM | 1500 nM | 1900 nM | 290 nM | 490 nM | 1100 nM
4 | Mm FcγRIII(Val^158), fully glycosylated, complex glycans (receptor) | 90 nM | 360 nM | 410 nM | 2100 nM | 3200 nM | 460 nM | 570 nM | 630 nM
5 | Mm FcγRIII(Val^158), partial glycosylation (Asn^38 and Asn^169 glycans removed), Man5 glycans (receptor) | 610 nM | 10 nM | 290 nM | 2200 nM | 4800 nM | 280 nM | 2200 nM | 850 nM
6 | Mm FcγRIII(Val^158), partial glycosylation (Asn^38 and Asn^169 glycans removed), complex glycans (receptor) | 1200 nM | 30 nM | 460 nM | 2600 nM | 4200 nM | 250 nM | 3000 nM | 1000 nM
7 | Mm FcγRIII(Val^158), fully glycosylated, Man5 glycans (receptor) | 80 nM | 300 nM | 280 nM | 1800 nM | 2300 nM | 240 nM | 300 nM | 530 nM
8 | Mm FcγRIII(Ile^158), fully glycosylated, complex glycans (from UniProt A3RFZ7 21-206) (receptor) | 230 nM | 250 nM | 260 nM | 1800 nM | 1900 nM | 400 nM | 980 nM | 1800 nM

Source: publication PMC9484259
